# No end group written: not given here.
# Legend:
# H2K-2B4 cells = assay: CCK-8 cell viability, WT H2K-2B4 cells; format: cell-based, murine; conditions: at 1 mM, proliferation and differentiation conditions, CCK-8, triplicate
# Protocol: (§1) Wild-type (WT) H2K-2B4 and dystrophic H2K-SF1 cell lines were cultured and used for all the experiments ([48]). Cells were seeded in 96-well cultures (approximately 4–4.5 × 10^3 cells per well) and sixteen hours after seeding were treated with EP80317, JMV2894 (both in the concentration range 100μM to 1mM) or ghrelin (as control in the concentration range 10nM to 100 μM). Cell viability was then evaluated at different time points following the exposure (16-96 h) by using the Cell Counting Kit-8 (CCK-8,96992 Sigma-Aldrich), according to the instruction. The optical density of each well was determined using a microplate reader set to 450 nm (Victor 3V, Perkin Elmer, Waltham, MA, USA). Cell viability was expressed in percentage vs. control properly corrected for blank values.
# H2K-SF1 cells = assay: CCK-8 cell viability, dystrophic H2K-SF1 cells; format: cell-based, murine; conditions: at 1 mM, proliferation and differentiation conditions, CCK-8, triplicate
# Protocol: as §1
substance,measurement,setting,value
"ghrelin: 28 amino acid hormone, used as control in the cell viability assay (GSSFLSPEHQRVQQRKESKKPPAKLQPR; ends and bridges not checked; UniProt Q9UBU3 24-51, looked up)",toxic effect on 2B4 cells,H2K-2B4 cells,no toxic effect
same,toxic effect on SF1 cells,H2K-SF1 cells,no toxic effect

# Source: PMC10130389, “Growth hormone secretagogues modulate inflammation and fibrosis in mdx mouse model of Duchenne muscular dystrophy” (Frontiers in Immunology, 2023)
